Measured values from IntAct's records for PubMed 23222540.

Target: ogt1_human OGT (UniProt O15294)
Sequence of UniProt O15294 (O15294 whole entry): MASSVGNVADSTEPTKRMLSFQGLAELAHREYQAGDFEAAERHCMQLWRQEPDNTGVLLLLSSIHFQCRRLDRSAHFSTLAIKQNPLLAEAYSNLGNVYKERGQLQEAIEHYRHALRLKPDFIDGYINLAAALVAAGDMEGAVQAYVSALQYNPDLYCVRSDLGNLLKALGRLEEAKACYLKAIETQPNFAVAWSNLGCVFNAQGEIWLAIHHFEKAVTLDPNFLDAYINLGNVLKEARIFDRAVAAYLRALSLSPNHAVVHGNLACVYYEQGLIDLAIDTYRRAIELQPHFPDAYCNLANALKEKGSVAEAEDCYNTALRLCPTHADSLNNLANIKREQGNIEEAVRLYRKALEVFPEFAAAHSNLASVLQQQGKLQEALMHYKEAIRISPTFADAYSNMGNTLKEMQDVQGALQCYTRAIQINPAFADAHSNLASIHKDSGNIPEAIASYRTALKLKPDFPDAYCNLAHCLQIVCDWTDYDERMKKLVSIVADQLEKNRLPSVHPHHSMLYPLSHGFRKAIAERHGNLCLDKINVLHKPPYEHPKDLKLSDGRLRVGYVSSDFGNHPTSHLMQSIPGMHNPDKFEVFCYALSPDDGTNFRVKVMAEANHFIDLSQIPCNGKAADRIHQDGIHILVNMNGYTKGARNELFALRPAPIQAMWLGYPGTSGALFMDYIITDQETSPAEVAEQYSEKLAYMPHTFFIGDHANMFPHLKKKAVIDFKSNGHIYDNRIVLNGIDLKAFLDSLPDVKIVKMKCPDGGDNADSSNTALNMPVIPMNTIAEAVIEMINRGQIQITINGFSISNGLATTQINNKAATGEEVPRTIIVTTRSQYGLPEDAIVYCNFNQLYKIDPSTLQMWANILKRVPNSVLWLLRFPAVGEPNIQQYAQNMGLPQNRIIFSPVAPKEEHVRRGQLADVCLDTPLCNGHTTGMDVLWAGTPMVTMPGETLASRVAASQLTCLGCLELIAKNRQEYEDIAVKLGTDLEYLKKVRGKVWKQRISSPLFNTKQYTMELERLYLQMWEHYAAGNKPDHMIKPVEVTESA

effect of a mutation on the interaction: with no effect
Substance: Methylcytosine dioxygenase TET2 (Homo sapiens), Q6N021-1 H1382Y;D1384A
